Measured values taken from publication PMC7360973, “Feedback regulation of heat shock factor 1 (Hsf1) activity by Hsp70‐mediated trimer unzipping and dissociation from DNA” (The EMBO Journal, 2020).
Ends that are not written are not given here.

Key:
Human Hsc70 (HSPA8) [1] = biological target: T1, Human Hsc70 (HSPA8) (human, UniProt P11142 1-646); experiment: fluorescence polarisation; fluorescein-labelled peptide at 1 μM titrated with Hsc70 (0–60 μM), 2 h at 25°C, HKM150 buffer (25 mM HEPES/KOH pH 7.6, 150 mM KCl, 5 mM MgCl2); Hsc70 concentrated in the presence of 1 mM ATP; quadratic fit; details: both partners purified
T1 construct: Hsc70 (HSPA8), constitutive Hsp70, human, wild type; In the functional rows from MEF and HeLa cells the Hsc70/Hsp70 is the cells' own; this molecule stands for it there; source: E. coli BL21 (DE3) Rosetta, purified (Ni-IDA, Ulp1 cleavage, reverse Ni-IDA)

[2] = biological target: the molecule itself; experiment: SEC + native gel or EMSA; trimer-to-monomer ratio of freshly purified Hsf1 in the absence of heat shock, by gel filtration (Superdex 200) and BN-PAGE
[3] = biological target: the molecule itself; experiment: native gel or EMSA; blue-native PAGE of lysates (15 μg total protein) of transfected HSF1−/− MEFs, immunoblot with Hsf1 antiserum
Human Hsc70 (HSPA8) [4] = biological target: T1, Human Hsc70 (HSPA8); experiment: HDX-MS; 6 μM Hsf1 (monomer or trimer) pre-incubated 30 min at 25°C with 12 μM Hsc70 or 9 μM DnaJB1 in 25 mM HEPES/NaOH pH 7.5, 150 mM NaCl, 10% glycerol, 2 mM DTT; diluted 10-fold in D2O buffer, 30 s at 25°C; online pepsin digestion; details: both partners purified
[5] = biological target: the molecule itself; experiment: native gel or EMSA; blue-native PAGE (8% gel, on ice) of purified Hsf1 wild type or variants, also after 10 min at 4–42°C (5 μM protein); Coomassie stain or immunoblot with Hsf1 antiserum

T1 sequence (P11142 whole entry): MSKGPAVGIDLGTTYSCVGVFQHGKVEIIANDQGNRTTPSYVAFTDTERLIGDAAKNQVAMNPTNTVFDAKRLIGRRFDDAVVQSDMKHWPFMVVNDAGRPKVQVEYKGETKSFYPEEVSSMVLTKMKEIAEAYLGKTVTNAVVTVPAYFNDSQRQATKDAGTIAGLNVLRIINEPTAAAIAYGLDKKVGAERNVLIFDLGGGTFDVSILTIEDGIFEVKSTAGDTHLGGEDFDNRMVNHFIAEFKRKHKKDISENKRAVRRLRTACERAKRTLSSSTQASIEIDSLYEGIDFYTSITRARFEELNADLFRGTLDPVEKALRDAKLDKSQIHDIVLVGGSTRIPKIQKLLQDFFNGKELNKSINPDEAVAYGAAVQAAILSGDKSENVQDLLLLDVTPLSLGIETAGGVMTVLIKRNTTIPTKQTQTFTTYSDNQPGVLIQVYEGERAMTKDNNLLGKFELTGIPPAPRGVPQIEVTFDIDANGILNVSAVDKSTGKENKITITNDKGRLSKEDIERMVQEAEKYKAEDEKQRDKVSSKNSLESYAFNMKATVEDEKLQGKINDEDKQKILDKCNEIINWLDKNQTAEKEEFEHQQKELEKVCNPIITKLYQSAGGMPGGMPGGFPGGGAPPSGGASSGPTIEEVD

B1: Hsf1 peptide S461‐Q471‐C (peptide)
peptide: SGKQLVHYTAQC(fluorescein‑5‑maleimide)
notes: Hsf1, human, residues 461-471 (in the TAD); C-terminal cysteine for labelling, not part of the Hsf1 stretch; also called residues 461–471
Human Hsc70 (HSPA8) [1]
  Kd: 5 to 30 µM

B2: Hsf1‐I190S,I194S (natural protein, human, UniProt Q00613 1-529, looked up)
chain: MDLPVGPGAAGPSNVPAFLTKLWTLVSDPDTDALICWSPSGNSFHVFDQGQFAKEVLPKYFKHNNMASFVRQLNMYGFRKVVHIEQGGLVKPERDDTEFQHPCFLRGQEQLLENIKRKVTSVSTLKSEDIKIRQDSVTKLLTDVQLMKGKQECMDSKLLAMKHENEALWREVASLRQKHAQQQKVVNKLSQFLSSLVQSNRILGVKRKIPLMLNDSGSAHSMPKYSRQFSLEHVHGSGPYSAPSPAYSSSSLYAPDAVASSGPIISDITELAPASPMASPGGSIDERPLSSSPLVRVKEEPPSPPQSPRVEEASPGRPSSVDTLLSPTALIDSILRESEPAPASVTALTDARGHTDTEGRPPSPPPTSTPEKCLSVACLDKNELSDHLDAMDSNLDNLQTMLSSHGFSVDTSALLDLFSPSVTVPDMSLPDLDSSLASIQELLSPQEPPRPPEAENSSPDSGKQLVHYTAQPLFLLDPGSVDTGSNDLPVLFELGEGSYFSEGDGFAEDPTISLLTGSEPPKAKDPTVS
notes: Hsf1, human, with I190S and I194S in HR-B; source: purified (gel filtration)
[2]
  stoichiometry N: 3

B3: Hsf1‐I202S,L203S,V205S expressed from pIRES‐HSF1‐I202S,L203S,V205S_hrGFP in cells (natural protein, human, UniProt Q00613 1-529, looked up)
chain: MDLPVGPGAAGPSNVPAFLTKLWTLVSDPDTDALICWSPSGNSFHVFDQGQFAKEVLPKYFKHNNMASFVRQLNMYGFRKVVHIEQGGLVKPERDDTEFQHPCFLRGQEQLLENIKRKVTSVSTLKSEDIKIRQDSVTKLLTDVQLMKGKQECMDSKLLAMKHENEALWREVASLRQKHAQQQKVVNKLIQFLISLVQSNRSSGSKRKIPLMLNDSGSAHSMPKYSRQFSLEHVHGSGPYSAPSPAYSSSSLYAPDAVASSGPIISDITELAPASPMASPGGSIDERPLSSSPLVRVKEEPPSPPQSPRVEEASPGRPSSVDTLLSPTALIDSILRESEPAPASVTALTDARGHTDTEGRPPSPPPTSTPEKCLSVACLDKNELSDHLDAMDSNLDNLQTMLSSHGFSVDTSALLDLFSPSVTVPDMSLPDLDSSLASIQELLSPQEPPRPPEAENSSPDSGKQLVHYTAQPLFLLDPGSVDTGSNDLPVLFELGEGSYFSEGDGFAEDPTISLLTGSEPPKAKDPTVS
notes: Hsf1, human, with I202S, L203S, V205S; source: HSF1−/− MEF or HeLa, transiently transfected, in lysate or in cells
[3]
  stoichiometry N: 3

B4: Human heat shock transcription factor 1 (Hsf1), wild type (natural protein, UniProt Q00613 1-529, looked up)
chain: MDLPVGPGAAGPSNVPAFLTKLWTLVSDPDTDALICWSPSGNSFHVFDQGQFAKEVLPKYFKHNNMASFVRQLNMYGFRKVVHIEQGGLVKPERDDTEFQHPCFLRGQEQLLENIKRKVTSVSTLKSEDIKIRQDSVTKLLTDVQLMKGKQECMDSKLLAMKHENEALWREVASLRQKHAQQQKVVNKLIQFLISLVQSNRILGVKRKIPLMLNDSGSAHSMPKYSRQFSLEHVHGSGPYSAPSPAYSSSSLYAPDAVASSGPIISDITELAPASPMASPGGSIDERPLSSSPLVRVKEEPPSPPQSPRVEEASPGRPSSVDTLLSPTALIDSILRESEPAPASVTALTDARGHTDTEGRPPSPPPTSTPEKCLSVACLDKNELSDHLDAMDSNLDNLQTMLSSHGFSVDTSALLDLFSPSVTVPDMSLPDLDSSLASIQELLSPQEPPRPPEAENSSPDSGKQLVHYTAQPLFLLDPGSVDTGSNDLPVLFELGEGSYFSEGDGFAEDPTISLLTGSEPPKAKDPTVS
notes: heat shock transcription factor 1 (Hsf1), human, wild type; Purified both as a monomer and as a trimer; One molecule is used for both states; the assay's format tells which was used; also called Hsf1wt; wt; source: E. coli BL21 (DE3) Rosetta, purified (Ni-IDA, Ulp1 cleavage, Superdex 200); monomeric and trimeric fractions collected separately; not shown: His6-SUMO, N-terminal, cleaved
Human Hsc70 (HSPA8) [4]
  binding result: binds

B5: Hsf1 peptide G204‐N214‐C (peptide)
peptide: GVKRKIPLMLNC(fluorescein‑5‑maleimide)
notes: Hsf1, human, residues 204-214; C-terminal cysteine for labelling, not part of the Hsf1 stretch
Human Hsc70 (HSPA8) [1]
  binding result: binds

B6: Hsf1 peptide Y468‐S480‐C (peptide)
peptide: YTAQPLFLLDPGSC(fluorescein‑5‑maleimide)
notes: Hsf1, human, residues 468-480 (in the TAD); C-terminal cysteine for labelling, not part of the Hsf1 stretch
Human Hsc70 (HSPA8) [1]
  binding result: binds

B7: Hsf1 peptide N200‐K208‐C (peptide)
peptide: NRILGVKRKC(fluorescein‑5‑maleimide)
notes: Hsf1, human, residues 200-208; C-terminal cysteine for labelling, not part of the Hsf1 stretch
Human Hsc70 (HSPA8) [1]
  binding result: binds

B8: Hsf1∆(202–213) (natural protein, human, UniProt Q00613 1-529, looked up)
chain: MDLPVGPGAAGPSNVPAFLTKLWTLVSDPDTDALICWSPSGNSFHVFDQGQFAKEVLPKYFKHNNMASFVRQLNMYGFRKVVHIEQGGLVKPERDDTEFQHPCFLRGQEQLLENIKRKVTSVSTLKSEDIKIRQDSVTKLLTDVQLMKGKQECMDSKLLAMKHENEALWREVASLRQKHAQQQKVVNKLIQFLISLVQSNRNDSGSAHSMPKYSRQFSLEHVHGSGPYSAPSPAYSSSSLYAPDAVASSGPIISDITELAPASPMASPGGSIDERPLSSSPLVRVKEEPPSPPQSPRVEEASPGRPSSVDTLLSPTALIDSILRESEPAPASVTALTDARGHTDTEGRPPSPPPTSTPEKCLSVACLDKNELSDHLDAMDSNLDNLQTMLSSHGFSVDTSALLDLFSPSVTVPDMSLPDLDSSLASIQELLSPQEPPRPPEAENSSPDSGKQLVHYTAQPLFLLDPGSVDTGSNDLPVLFELGEGSYFSEGDGFAEDPTISLLTGSEPPKAKDPTVS
notes: source: E. coli BL21 (DE3) Rosetta, purified (Ni-IDA, Ulp1 cleavage, Superdex 200); not shown: His6-SUMO, N-terminal, cleaved
[5]
  binding result: binds
